T1: NEK3(h) (human, UniProt P51956 1-506, limits assumed)
T1 sequence (looked up): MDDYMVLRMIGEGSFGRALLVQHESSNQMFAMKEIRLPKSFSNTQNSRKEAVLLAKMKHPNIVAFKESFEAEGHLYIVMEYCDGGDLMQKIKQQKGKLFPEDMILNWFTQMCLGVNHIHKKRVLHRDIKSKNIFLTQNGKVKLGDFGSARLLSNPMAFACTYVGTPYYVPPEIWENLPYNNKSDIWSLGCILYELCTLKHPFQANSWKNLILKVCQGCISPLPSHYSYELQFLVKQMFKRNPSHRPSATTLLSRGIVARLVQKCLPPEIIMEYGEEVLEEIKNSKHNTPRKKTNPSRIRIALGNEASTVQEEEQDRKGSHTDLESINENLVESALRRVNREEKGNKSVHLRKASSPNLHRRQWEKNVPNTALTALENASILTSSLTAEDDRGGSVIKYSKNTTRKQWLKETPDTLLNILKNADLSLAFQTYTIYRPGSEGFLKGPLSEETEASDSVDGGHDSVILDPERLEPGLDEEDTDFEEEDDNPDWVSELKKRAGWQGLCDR

T2: NEK11(h) (human, UniProt Q8NG66 1-645, limits assumed)
T2 sequence (looked up): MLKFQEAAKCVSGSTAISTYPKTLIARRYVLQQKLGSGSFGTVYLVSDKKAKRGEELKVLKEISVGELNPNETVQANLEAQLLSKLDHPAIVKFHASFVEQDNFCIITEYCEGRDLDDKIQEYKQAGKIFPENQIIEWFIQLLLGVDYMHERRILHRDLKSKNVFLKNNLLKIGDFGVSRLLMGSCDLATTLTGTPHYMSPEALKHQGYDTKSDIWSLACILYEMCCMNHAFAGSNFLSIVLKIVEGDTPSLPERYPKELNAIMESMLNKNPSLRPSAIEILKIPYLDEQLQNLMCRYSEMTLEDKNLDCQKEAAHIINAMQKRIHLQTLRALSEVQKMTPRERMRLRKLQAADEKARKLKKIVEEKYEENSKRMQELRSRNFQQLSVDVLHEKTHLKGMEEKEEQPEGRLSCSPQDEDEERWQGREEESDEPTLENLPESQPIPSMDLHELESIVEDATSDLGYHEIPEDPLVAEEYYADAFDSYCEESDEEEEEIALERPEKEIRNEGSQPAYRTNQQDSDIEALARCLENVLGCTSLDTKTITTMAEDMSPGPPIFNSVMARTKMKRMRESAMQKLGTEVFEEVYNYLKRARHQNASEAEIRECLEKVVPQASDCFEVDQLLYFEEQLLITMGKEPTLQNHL

T3: PKCζ(h) (human, UniProt Q05513 1-592)
T3 sequence (looked up): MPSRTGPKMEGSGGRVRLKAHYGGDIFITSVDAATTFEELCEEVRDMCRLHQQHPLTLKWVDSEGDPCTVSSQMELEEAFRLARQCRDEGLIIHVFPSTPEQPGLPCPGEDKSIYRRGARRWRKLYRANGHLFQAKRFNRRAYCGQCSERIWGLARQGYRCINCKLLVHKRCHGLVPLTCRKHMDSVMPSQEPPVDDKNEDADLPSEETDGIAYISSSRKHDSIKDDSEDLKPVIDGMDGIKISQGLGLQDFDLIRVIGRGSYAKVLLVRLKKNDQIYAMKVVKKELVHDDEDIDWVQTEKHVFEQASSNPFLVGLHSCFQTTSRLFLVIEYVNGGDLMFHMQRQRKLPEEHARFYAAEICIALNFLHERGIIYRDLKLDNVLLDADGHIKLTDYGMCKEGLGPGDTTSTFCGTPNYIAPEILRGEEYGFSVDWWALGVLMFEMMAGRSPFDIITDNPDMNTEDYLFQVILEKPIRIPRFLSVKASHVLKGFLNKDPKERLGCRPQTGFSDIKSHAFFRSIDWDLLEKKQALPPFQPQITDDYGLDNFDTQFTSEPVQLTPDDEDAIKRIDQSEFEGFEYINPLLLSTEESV

T4: EphB2(h) (human, UniProt P29323 565-986, limits assumed)
T4 sequence (looked up): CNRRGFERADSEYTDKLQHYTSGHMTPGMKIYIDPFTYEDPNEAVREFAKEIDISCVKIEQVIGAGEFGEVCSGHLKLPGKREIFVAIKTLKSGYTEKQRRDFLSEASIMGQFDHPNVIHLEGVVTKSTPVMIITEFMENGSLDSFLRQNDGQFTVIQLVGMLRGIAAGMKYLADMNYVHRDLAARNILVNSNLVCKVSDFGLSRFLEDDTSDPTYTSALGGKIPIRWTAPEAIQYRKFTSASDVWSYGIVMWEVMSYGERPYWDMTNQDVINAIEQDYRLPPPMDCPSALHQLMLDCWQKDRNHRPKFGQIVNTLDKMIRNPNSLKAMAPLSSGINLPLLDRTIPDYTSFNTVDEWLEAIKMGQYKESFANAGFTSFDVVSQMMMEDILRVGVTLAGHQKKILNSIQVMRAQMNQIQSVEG

T5: NEK2(h) (human, UniProt P51955 1-445)
T5 sequence (looked up): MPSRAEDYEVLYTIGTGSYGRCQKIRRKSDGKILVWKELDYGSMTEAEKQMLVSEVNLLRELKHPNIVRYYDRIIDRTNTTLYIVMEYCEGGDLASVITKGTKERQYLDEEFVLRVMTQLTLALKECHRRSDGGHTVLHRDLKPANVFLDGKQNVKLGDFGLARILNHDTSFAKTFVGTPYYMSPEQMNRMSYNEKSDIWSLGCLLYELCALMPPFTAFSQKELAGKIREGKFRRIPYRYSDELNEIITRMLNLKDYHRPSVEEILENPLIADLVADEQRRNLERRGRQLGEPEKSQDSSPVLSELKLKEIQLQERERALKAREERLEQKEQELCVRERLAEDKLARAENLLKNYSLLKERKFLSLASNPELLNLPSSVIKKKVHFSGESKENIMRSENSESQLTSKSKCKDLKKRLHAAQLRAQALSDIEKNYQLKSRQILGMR


Tests used:
Assay in all cases: cell-based or functional assay
Fes(h) = Fes(h) (human, UniProt P07332 1-822, limits assumed)
NEK3(h) = biological target: T1, NEK3(h)
NEK11(h) = biological target: T2, NEK11(h)
PKCζ(h) = biological target: T3, PKCζ(h)
Syk(h) = Syk(h) (human, UniProt P43405 1-635)
cKit(D816V)(h) = cKit(D816V)(h) (human, UniProt P10721 544-976)
EphB2(h) = biological target: T4, EphB2(h)
CDK2/cyclinA(h) = CDK2/cyclinA(h) (human, UniProt P24941 1-298; P20248 1-432)
NEK2(h) = biological target: T5, NEK2(h)

Chain of cKit(D816V)(h) (P10721 544-976 D816V): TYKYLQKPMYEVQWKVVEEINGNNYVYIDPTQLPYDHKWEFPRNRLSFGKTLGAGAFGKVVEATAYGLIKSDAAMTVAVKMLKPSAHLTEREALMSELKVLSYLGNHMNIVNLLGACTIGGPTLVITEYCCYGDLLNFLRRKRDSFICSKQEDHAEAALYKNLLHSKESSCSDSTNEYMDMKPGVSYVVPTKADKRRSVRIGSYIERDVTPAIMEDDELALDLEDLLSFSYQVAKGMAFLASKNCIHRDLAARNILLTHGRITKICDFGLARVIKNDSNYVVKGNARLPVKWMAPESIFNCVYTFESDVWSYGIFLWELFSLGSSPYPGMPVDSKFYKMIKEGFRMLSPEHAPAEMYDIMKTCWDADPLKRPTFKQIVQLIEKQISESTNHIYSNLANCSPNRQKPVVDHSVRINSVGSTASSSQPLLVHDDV
Chain of Fes(h) (P07332 whole entry): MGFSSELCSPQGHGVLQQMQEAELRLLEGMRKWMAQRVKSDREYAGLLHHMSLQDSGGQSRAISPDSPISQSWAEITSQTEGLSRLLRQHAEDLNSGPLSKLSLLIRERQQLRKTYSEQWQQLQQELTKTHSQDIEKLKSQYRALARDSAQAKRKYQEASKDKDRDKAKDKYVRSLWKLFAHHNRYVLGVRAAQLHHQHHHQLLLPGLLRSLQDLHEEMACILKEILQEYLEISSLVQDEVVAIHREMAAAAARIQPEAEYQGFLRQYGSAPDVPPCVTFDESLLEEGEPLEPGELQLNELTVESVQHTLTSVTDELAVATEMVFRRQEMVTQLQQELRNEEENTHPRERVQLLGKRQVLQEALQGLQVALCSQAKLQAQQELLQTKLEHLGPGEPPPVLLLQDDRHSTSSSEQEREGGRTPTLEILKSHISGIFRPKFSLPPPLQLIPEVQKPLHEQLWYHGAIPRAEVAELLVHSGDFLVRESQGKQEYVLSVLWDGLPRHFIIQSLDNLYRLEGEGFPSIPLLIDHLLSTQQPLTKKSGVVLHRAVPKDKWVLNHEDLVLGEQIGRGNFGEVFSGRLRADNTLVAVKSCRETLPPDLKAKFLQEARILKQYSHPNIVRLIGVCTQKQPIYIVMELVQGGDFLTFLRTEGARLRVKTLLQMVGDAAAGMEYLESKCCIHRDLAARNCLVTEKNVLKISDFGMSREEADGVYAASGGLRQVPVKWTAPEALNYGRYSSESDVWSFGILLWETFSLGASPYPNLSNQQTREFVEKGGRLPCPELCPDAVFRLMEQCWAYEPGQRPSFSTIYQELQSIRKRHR

Binder	% activity, 100 µM (Fes(h)) [%]	% activity, 100 µM (NEK3(h)) [%]	% activity, 100 µM (NEK11(h)) [%]	% activity, 100 µM (PKCζ(h)) [%]	% activity, 100 µM (Syk(h)) [%]	% activity, 100 µM (cKit(D816V)(h)) [%]	% activity, 100 µM (EphB2(h)) [%]	% activity, 100 µM (CDK2/cyclinA(h)) [%]	% activity, 100 µM (NEK2(h)) [%]
KAFAKLAARLYRKALARQLGVAA [MMI-0400]	16	85	33	75	9	35	22	92	61
FAKLAARLYRKALARQLGVAA [MMI-0300]	20	92	53	81	24	60	18	86	78

Reference: US20140072613A1 (published 2014)
